We go through 1 molecule from publication PMC9490040, “Mechanistic insight into the RNA-stimulated ATPase activity of tick-borne encephalitis virus helicase”.

This series deals with NS3H (NS3 helicase domain) WT (Tick-borne encephalitis virus strain …, UniProt Q01299 1662-2110). The series is described as follows: fluorescence anisotropy; 1 mM Mg2+; no nucleotide; apparent KD; 20 mM Tris-HCl pH 7.5, 100 mM NaCl, 1 mM MgCl2, 7.5% glycerol; 45 min at 30 C; […]. Conditions: protein: recombinant; tags: N-terminal 10xHis (pET-19b); label: 5' 6-FAM; single strand.
Sequence of NS3H (NS3 helicase domain) WT (Q01299 1662-2110): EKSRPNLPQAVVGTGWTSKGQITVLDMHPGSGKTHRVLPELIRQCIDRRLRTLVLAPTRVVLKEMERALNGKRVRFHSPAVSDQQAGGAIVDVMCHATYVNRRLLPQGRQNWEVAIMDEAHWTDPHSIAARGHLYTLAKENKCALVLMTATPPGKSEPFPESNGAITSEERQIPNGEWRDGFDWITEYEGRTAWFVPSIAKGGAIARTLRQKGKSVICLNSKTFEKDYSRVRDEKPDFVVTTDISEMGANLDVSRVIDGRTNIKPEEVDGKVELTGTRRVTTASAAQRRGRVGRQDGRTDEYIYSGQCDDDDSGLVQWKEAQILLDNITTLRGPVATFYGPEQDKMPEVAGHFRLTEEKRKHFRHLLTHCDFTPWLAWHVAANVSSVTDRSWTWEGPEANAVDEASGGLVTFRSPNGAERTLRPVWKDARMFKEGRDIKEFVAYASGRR

As for AGAUUUUCUUGC (ssRNA) [6-FAM-ssRNA12], the Kd is 49.7 ± 9.3 nM.
